What is called EC50 is the concentration at which the effect is half-maximal.

The target of assay [1] is T1, human CD112R antigen protein huCD112R-His (Acro Biosysterm, PVG-H52H4) (human, UniProt Q6DKI7 41-171).
T1 construct: purchased; also called human antigen protein; not shown: His tag
T1 sequence (looked up): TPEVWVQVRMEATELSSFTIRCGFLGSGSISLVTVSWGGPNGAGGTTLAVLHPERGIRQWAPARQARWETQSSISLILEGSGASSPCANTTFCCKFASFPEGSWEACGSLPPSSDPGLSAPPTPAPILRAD
In words: ELISA, huCD112R-His coated on plate. In general terms: In an ELISA, binding on a coated surface is turned into a signal by an enzyme label.

The target of assay [2] is T2, monkey antigen protein (monkey CD112R, Uniprot ID: A0A2K5WVV8) (monkey, UniProt A0A2K5WVV8 41-171).
T2 sequence: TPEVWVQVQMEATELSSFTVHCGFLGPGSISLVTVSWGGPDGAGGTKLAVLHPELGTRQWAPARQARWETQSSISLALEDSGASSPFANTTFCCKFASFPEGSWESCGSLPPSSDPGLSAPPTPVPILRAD
In words: ELISA, monkey antigen protein (as Example 6.1).

B1: C51 (antibody, human IgG1, kappa, V domains shown)
VH: QVQLQQSGAELVRPGASVTLSCKASGYTFTDYEMHWVKQTPVHGLEWIGAIDPETGGTAYNQKFKGKAILTADKSSSTAYMELRSLTSEDSAVYYCTRWITTVVATLYYFDYWGQGTTLTVSS
VL: DIVMTQSQKFMSTSVGDRVSITCKASQNVRTAVAWYQQKPGQSPKALIYLASNRHTGVPDRFTGSGSGTDFTLTISNVQSEDLADYFCLQHWNYPLTFGAGTKLELKR
B1: the EC50 in assay [1] was found to be 0.228 nM; in assay [2], 0.224 nM.

B2: C119 (antibody, human IgG1, kappa, V domains shown)
VH: EVKLVESGGGLVQPGGSLKLSCVASGFTFNTYIMSWVRQTPEKRLELVADISNSGGNTYYSDTVKGRFTISRDNAKNTLYLQMSSLKSEDTAMYYCARPDNWDPFVYWGQGTLVTVSA
VL: DIQMTQSSSSFSVSLGDRVTITCKASEDIYARLAWYQQKPGNAPRLLISGATSLETGVPSRFSGSGSGKNYTLSITSLQTEDVGTYYCQQHWSTPWTFGGGTNLEIKR
For B2, the EC50 in assay [1] is 0.025 nM; in assay [2], 0.08 nM.

B3: C123 (antibody, human IgG1, kappa, V domains shown)
VH: EVQLVESGGGLVKPGGSLKLSCAASGFTFSNFAMSWVRQTPAMRLESVATIVNGGINTYYPDTVKGRFTVSRDNAKNTLYLQMSSLRSEDTAIYYCARHDDFLYYAMDYWGQGTSVTVSS
VL: QIVLTQSPAIMSASPGEKVTMTCSASSSVSYMFWYQQKPGSSPRLLIYDTSNLASGVPVRFSGSGSGTSYSLTISRLEAEDAATYYCQQWTSYPLTFGAGTKLDLKR
For the molecule B3, the concentration for a half-maximal effect (EC50) in assay [1] is 0.035 nM; in assay [2], 0.056 nM.

B4: C143 (antibody, human IgG1, kappa, V domains shown)
VH: EVQLVESGGGLVKPGGSLKLSCAASGFTFSNFAMSWVRQTPAMRLESVATIVNGGINTYYPDTVKGRFTVSRDNAKNTLYLQMSSLRSEDTAIYYCARHDDFLYYAMDYWGQGTSVTVSS
VL: QIVLTQSPAIMSASPGEKVTMTCSASSSVNYMFWYQQKPGSSPRLLIYDTSNLASGVPVRFSGSGSGTSYSLTISRLEAEDAATYYCQQWTSYPLTFGAGTKLDLKR
As to B4, the concentration giving a half-maximal response (EC50) turned out to be 0.025 nM in assay [1] and 0.04 nM in assay [2].

B5: C33 (antibody, human IgG1, kappa, V domains shown)
VH: QVQLQQSGPELVKPGASVKISCKASGYTFTDYYINWVKQRPGQGLEWIGWIFPGSGSTYYNEKFKGKATPTVDKYSSTAYMLLSSLTSEDSAVYFCAREDYFDRGDCWGQGTSVTVSS
VL: QIVLTQSPAIMSASPGEKVTMTCSASSSINYMHWYQQKPGTSPKRWIYDTSKLASGVPARFSGSGSGTSYSLTISSMEAEDAATYYCHQRSSYPFTFGSGTKLEIKR
On to B5, for which, in assay [1], it took 1.3 nM to reach a half-maximal effect (EC50).

B6: C121 (antibody, human IgG1, kappa, V domains shown)
VH: EVQLQQSGPEVVKPGASVKISCKASGNTFTDYFINWVKQSHGKSLEWIGDINPDNGGTNYNQKFKGKATLTVDKSSGTAFMGLRSLTSEDSAVYYCATLYFDYWGQGTSLTVSS
VL: DIVMTQSPSSLSVSAGEKVTMSCKSSQSLLNSGNQKNYLAWYQQKPGQPPKLLIYGASTRESGVPDRFTGSGSGTDFTLTISSVQAEDLAVYYCQNAHSSPYTFGGGTRLEIKR
Consider B6, for which the half-maximal effective concentration (EC50) in assay [1] turned out to be 0.037 nM; in assay [2], 0.055 nM.

B7: C122 (antibody, human IgG1, kappa, V domains shown)
VH: EVQLQQSGPEVVKPGASVKISCKASGNTFTDYFINWVKQRHGKSLEWIGDVNPDNGGTNYNQKFKGKATLTVDKSSGTAFMGLRSLTSEDSAVYYCATLFFDSWGQGTTLTVSS
VL: DIVMTQSPSSLNVSAGEKVTMSCKSSQSLLNSGNQKNYLAWYQQKPGQPPKLLIYGASTRESGVPDRFTGSGSGTDFTLTISSVQAEDLALYYCQNAHSSPYTFGGGTKLEIKR
Regarding B7, the EC50 in assay [1] was 0.03 nM; in assay [2] it was 0.031 nM.

B8: C61 (antibody, human IgG1, kappa, V domains shown)
VH: DVQLQESGPGLVKPSQSLSLTCSVTGYSITSNYYWNWIRQFPGNNLEWMGYISSDGTNNYNPSLRNRISITRDTSKNQFFLKLNSVTTEDTATYYCARGLRYGPWGQGTTLTVSS
VL: QLILTQSSSASFSLGASAKLTCTLSSQHSTYTIEWYQQQPLKAPKYVMEVKNDGSHRTGDGIPDRFSGSSSGADRYLSISNIQPEDEAIYICGVGDINNYIFGGGTKVTVLR
B8 showed a concentration giving a half-maximal response (EC50) in assay [1] of 0.089 nM.

B9: C43 (antibody, human IgG1, kappa, V domains shown)
VH: QVQLQQPGAELVRPGTSVKLSCKASGNTFTTYWMHWVKQRPGQGHEWIGVIDASDSNTKYNQKFKGKATLTVDTSSSTAYMQLSSLTSEDSAVYYCARYYSGSSYGLDYWGQGTTLTVSS
VL: DIQMTQTASSLSASLGDRVTISCRASQDISNYLNWYQQKPDGTVKLLIYYTSRLHSGVPSRFSGSGSGTDYSLTITNLEQEDIASYFCQQGNMFPPTFGGGTKLEIKR
On to B9, for which the concentration giving a half-maximal response (EC50) in assay [1] was 0.051 nM; in assay [2], 0.044 nM.

B10: C25 (antibody, human IgG1, kappa, V domains shown)
VH: QVQLQQPGAELVRPGTSVKLSCKASGNTFTSYWMHWVKQRPGQGHEWIGVIDASDSKTKYNQKFKGKATLTVDTSSSTAYMQLSSLTSEDSAVYYCARYYSGSSYGLDYWGQGTTLTVSS
VL: DIQMTQTASSLSASLGDRVTISCRASQDISNYLNWYQQKPDGTVKLLIYYTSRLHSGVPSRFSGSGSGTDYSLTISNLEQEDIATYFCQQGNTLPPTFGGGTKLEIKR
Turning to B10, the EC50 in assay [1] was found to be 0.052 nM; in assay [2], 3.8 nM.

B11: C69 (antibody, human IgG1, kappa, V domains shown)
VH: EVQLQQSGPVLVKPGASVKMSCKASGYRLTDYYMHWVKQSHGKSLEWIGIINPYNGGTSYNQKFKGKATLTVDKSSSTAYMELNSLTSDDSAVYYCARDSSNVGNDMDYWGQGTSVSVSS
VL: DIQMTQTTSSLSASLGDRVTISCRASQDISNYLNWYLQKPDGTVKLLIYYSSRLHSGVPSRFSGSGSGTDYSLTINNLEQEDIATYFCQQGNTLPRTFGGGTKLEIRR
Consider B11, for which the 50% effective concentration (EC50) is 0.023 nM in assay [1] and 0.051 nM in assay [2].

B12: C116 (antibody, human IgG1, kappa, V domains shown)
VH: EVKLVESGGGLVQPGGSLKLSCAVSGFTFSSYTMSWVRQTPEKRLELVAKISNSGGSTNYPDTVKGRFTLSRDNVKNTLYLQMSSLKSEDTAIYYCTRYSWDVYAMDYWGQGTSVTVSS
VL: DIQMTQSPASLSASVGETVIITCRASENIYSYLAWYQQKQGKSPHLLVYNAETLVEGVPSRFSGSGSATQFSLKINSLQPEDFGTYYCQHHYGDPTFGGGTKLEIKR
Take B12: the values for the EC50 in assay [1] and in assay [2] were 0.025 nM and 0.061 nM, respectively.

B13: C117 (antibody, human IgG1, kappa, V domains shown)
VH: QVQLQQSGAELARPGASVKMSCKASGYTFTDYWMQWVKQRPGQGLEWIGAIFPGNGETRDTQKFKGRATLTADRSSSTAYIQLSSLTSEDSAVYYCATFNNYLDYWGQGTTLTVAS
VL: QIVLTQSPAIMSASPGEKVTMTCSASSSVSYMHWYQQKSGASPKRWIYDTSKLTSGVPARFSGSGSGTSYSLTISNMEAEDAATYYCQQWISNPYTFGGGTKLEIKR
As to B13, the figures for the EC50 in assay [1] and in assay [2] were 0.041 nM and 0.045 nM, respectively.

B14: C6 (antibody, human IgG1, kappa, V domains shown)
VH: QVHLHQSGPELVKPGASVKISCKASGYTFTAYYINWVKQRPGQGLEWIGWIFPGSDSTYYNEKFKGRATLTVDKSSSTAYMLLNSLTSEDSAVYFCARDGELRGPFDYWGQGTTLTVSS
VL: DIQMTQSPSSLSASLGGKVTITCKASQDINKYIAWYQHKPGKSPRLLIHYTSTLQAGIPSRFSGSGSGRDYSFSISNLEPEDSATYYCLQYDNLLTFGGGTKLEIKR
For B14, the concentration for a half-maximal effect (EC50) in assay [1] was found to be 0.055 nM; in assay [2], 0.058 nM.

B15: C44 (antibody, human IgG1, kappa, V domains shown)
VH: QVQLQQSGPELMKPGASLKISCKASGYTFTDSYINWVKQRPGQGLEWIGWIFPGSGSTYYNEKFKGTATLTVDKSSSTAYMLLSSLTSEDSAAYFCARDGGLRGPFDYWGQGTTLTVSS
VL: DIQMTQSPSSLSASLGGKVTITCKASQDINKYIAWYQHKPGKGPRLLIHYTSTLQSGIPSRFSGSGSGRDYFFSISNLESEDIATYYCLQYDHLLTFGGGTKLEIKR
Regarding B15, the values for the 50% effective concentration (EC50) in assay [1] and in assay [2] were 0.053 nM and 0.076 nM, respectively.

B16: C45 (antibody, human IgG1, kappa, V domains shown)
VH: QVHLQQSGPDLVKPGVSVKISCKASGYTFTDYYINWVKQRPGQGLEWIGWIFPGSGTTYYNEKFKGKATLTVDKSSSTAYMLLSSLTSEDSAVYFCARDGGLRGPFDYWGQGTTLTVSS
VL: DIQMTQSPSSLSASLGGKVTITCKANQDINKYIAWYQYKPGKGPRLLIHYTSTLQPDIPSRFSGSGSGRDFSFSISNLEPEDIATYYCLQYDYLYTFGGGTKLEIKR
As to B16, the values for the EC50 in assay [1] and in assay [2] were 0.059 nM and 0.114 nM, respectively.

B17: C118 (antibody, human IgG1, kappa, V domains shown)
VH: QVQLQQPGAELVKPGTSVKLSCKAAGYIFTSSWMHWVKQRPGQGLEWIGEINPSDGRTNYNEKFKNKATLTVDHSSSTAYMQLSSLTSEDSAVYYCASNADRAYYTMDYWGQGTSVTVSS
VL: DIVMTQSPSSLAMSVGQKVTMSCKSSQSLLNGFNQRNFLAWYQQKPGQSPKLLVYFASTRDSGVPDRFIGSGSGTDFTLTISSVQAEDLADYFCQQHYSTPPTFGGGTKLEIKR
On to B17, for which the half-maximal effective concentration (EC50) turned out to be 0.029 nM in assay [1] and 0.057 nM in assay [2].

B18: C112 (antibody, human IgG1, kappa, V domains shown)
VH: QVQLQQPGAELVKPGASVKLSCKASGYTFTSSWMHWVKQRPGQGLEWIGEINPSDGRTNYNEKFKSKATLTVDHSSSTAYMQLSSLTSEDSAVYYCASNADRAYYTMDYWGQGTSVTVSS
VL: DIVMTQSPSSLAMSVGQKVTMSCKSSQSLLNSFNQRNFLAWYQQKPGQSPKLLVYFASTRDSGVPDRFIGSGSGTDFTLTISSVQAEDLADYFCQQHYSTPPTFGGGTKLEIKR
Regarding B18, the values for the concentration for a half-maximal effect (EC50) in assay [1] and in assay [2] were 0.028 nM and 0.055 nM, respectively.

B19: C38 (antibody, human IgG1, kappa, V domains shown)
VH: QVQLQQSGAELMKPGASVKLSCKATGYTFTGYWIEWVKQRPGHGLEWIGEILPESGRTNYNEKFKGKATFTADTSSNTAYMQLSSLTTEDSAIYYCASLLFFDYWGQGTTLTVSS
VL: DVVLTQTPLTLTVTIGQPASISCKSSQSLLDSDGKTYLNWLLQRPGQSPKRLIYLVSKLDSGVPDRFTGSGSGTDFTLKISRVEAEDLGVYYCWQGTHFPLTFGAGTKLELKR
As for B19, the EC50 in assay [1] was 0.064 nM.

B20: C110 (antibody, human IgG1, kappa, V domains shown)
VH: EVQLQQSGAELAKPGASVKLSCTVSGFNIKDTYIHWVKQRPEQGLEWIGGIDPAIGNTVSASKFQDKATITADTSSSTAYMQLSSLTSGDTAVYYCARERVHSNTLYYAMDYWGQGTSVTVSS
VL: DIVLTQSPASLAVSLGQRATISCRASKSVSISGYSYMHWYQQKPGQPPKLLIYLASNLESGVPARFSGSGSGTDFTLNIHPVEEEDAATYYCQHSRELPPTFGGGTKLEIKR
As for B20, the figures for the EC50 in assay [1] and in assay [2] were 0.032 nM and 0.034 nM, respectively.
